Measurements: paper PMC11417369, “DNA sequence and chromatin differentiate sequence-specific transcription factor binding in the human malaria parasite Plasmodium falciparum”
Positions count from the first letter of the chain named.

T1: AP2-HC D1 (Plasmodium falciparum, UniProt Q8IKR9 1316-1374)
T1 sequence: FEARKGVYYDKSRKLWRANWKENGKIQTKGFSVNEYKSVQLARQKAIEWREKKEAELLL

B1: CACACA_negctrl_site966 (dsDNA)
DNA 1: TATTTGTTTGAATTTTTTTTTTTTTTTTTTTATGTG
DNA 2: CACATAAAAAAAAAAAAAAAAAAATTCAAACAAATA
B2: CACACA_negctrl_site1371 (dsDNA)
DNA 1: ATAATTAGTTCAATTTTTTTTTTTTTTTTTTTTTTT
DNA 2: AAAAAAAAAAAAAAAAAAAAAAATTGAACTAATTAT
B3: CACACA_negctrl_site1132 (dsDNA)
DNA 1: ATGTAATCATTTTCGACTTTTTTTTTTTTTTTTTTT
DNA 2: AAAAAAAAAAAAAAAAAAAGTCGAAAATGATTACAT
B4: CACACA_negctrl_site1094 (dsDNA)
DNA 1: TTTTATTGTTTTTTTTTTTTTTCTTTTTTTTTTTTT
DNA 2: AAAAAAAAAAAAAGAAAAAAAAAAAAAACAATAAAA
B5: CACACA_negctrl_site1488 (dsDNA)
DNA 1: AATTCTTTTTATATATTAAATATTATTAATAAGTCA
DNA 2: TGACTTATTAATAATATTTAATATATAAAAAGAATT
B6: CACACA_negctrl_site1802 (dsDNA)
DNA 1: TTATAATAAATATTTATTATATATAATATATATTAC
DNA 2: GTAATATATATTATATATAATAAATATTTATTATAA
B7: CACACA_negctrl_site76 (dsDNA)
DNA 1: TAAATGTGAAATTTTATATTTTATATAATATACAAT
DNA 2: ATTGTATATTATATAAAATATAAAATTTCACATTTA
B8: CACACA_negctrl_site437 (dsDNA)
DNA 1: ATTATATTAATATATATATATATATATATAATAATA
DNA 2: TATTATTATATATATATATATATATATTAATATAAT
B9: CACACA_negctrl_site1471 (dsDNA)
DNA 1: TGGATTTTTTGATTTTTGTTTTTCTTCTTTCCCCCC
DNA 2: GGGGGGAAAGAAGAAAAACAAAAATCAAAAAATCCA
B10: CACACA_negctrl_site577 (dsDNA)
DNA 1: TCATATTATAAATAAATAAATAAATATATATATATA
DNA 2: TATATATATATATTTATTTATTTATTTATAATATGA
B11: CACACA_negctrl_site401 (dsDNA)
DNA 1: TGTTAATATATCATTATGTTATAGGTTCAGCTGGGA
DNA 2: TCCCAGCTGAACCTATAACATAATGATATATTAACA
B12: CACACA_negctrl_site386 (dsDNA)
DNA 1: TCTTACAAGGAACTAATAAAATTGTAGTTTGTATTT
DNA 2: AAATACAAACTACAATTTTATTAGTTCCTTGTAAGA
B13: CACACA_negctrl_site313 (dsDNA)
DNA 1: ATAAACAAACATAAATCTGATTTTAATTTTTTTAAG
DNA 2: CTTAAAAAAATTAAAATCAGATTTATGTTTGTTTAT
B14: CACACA_negctrl_site1459 (dsDNA)
DNA 1: AAAAATATATATATATTTCTTCTTTGTTAAAATGTA
DNA 2: TACATTTTAACAAAGAAGAAATATATATATATTTTT
B15: CACACA_negctrl_site788 (dsDNA)
DNA 1: GTATATATCTAAAAATATATATATATATATATATAT
DNA 2: ATATATATATATATATATATATTTTTAGATATATAC
B16: CACACA_negctrl_site481 (dsDNA)
DNA 1: TGACTTTTTTTTTTTTTTTTTTTTTTTTATCTTTTT
DNA 2: AAAAAGATAAAAAAAAAAAAAAAAAAAAAAAAGTCA
B17: CACACA_negctrl_site1204 (dsDNA)
DNA 1: ATTTTTTTTTTTTTTTTTCATTTTTTTTTTTTTTTT
DNA 2: AAAAAAAAAAAAAAAATGAAAAAAAAAAAAAAAAAT
B18: CACACA_negctrl_site1109 (dsDNA)
DNA 1: TATATATCTGTGAAAATACTTAAATTGTTATAAAAA
DNA 2: TTTTTATAACAATTTAAGTATTTTCACAGATATATA
B19: CACACA_negctrl_site1773 (dsDNA)
DNA 1: TGGTTATTTATCTTTATTATAAATATTTACAAATAA
DNA 2: TTATTTGTAAATATTTATAATAAAGATAAATAACCA
B20: CACACA_negctrl_site1085 (dsDNA)
DNA 1: TATATTCAAAAAAATTCATTTCTGATTTTTTTTTTT
DNA 2: AAAAAAAAAAATCAGAAATGAATTTTTTTGAATATA
B21: CACACA_negctrl_site485 (dsDNA)
DNA 1: AAAGTGGCCATATATTTTTTTTTTTTTTTCCTTATT
DNA 2: AATAAGGAAAAAAAAAAAAAAATATATGGCCACTTT
B22: CACACA_negctrl_site1687 (dsDNA)
DNA 1: TATTGATAATTTTATATATACATACATAAATAAATA
DNA 2: TATTTATTTATGTATGTATATATAAAATTATCAATA
B23: CACACA_negctrl_site828 (dsDNA)
DNA 1: ATATATATATATGTTTATTTATTTGAACGATTGTGG
DNA 2: CCACAATCGTTCAAATAAATAAACATATATATATAT
B24: CACACA_negctrl_site1766 (dsDNA)
DNA 1: ACACATATATATATATATATATATATATATATATAT
DNA 2: B24 DNA 1 with C2T, C4T, A33G, A35G
B25: CACACA_negctrl_site39 (dsDNA)
DNA 1: AATATATCAAAAATTGGATAGTTTCTTATAAAAAAT
DNA 2: ATTTTTTATAAGAAACTATCCAATTTTTGATATATT
B26: CACACA_negctrl_site1399 (dsDNA)
DNA 1: TATTTTAATTTTTTTTTGTTTTTTCTAATACATGTA
DNA 2: TACATGTATTAGAAAAAACAAAAAAAAATTAAAATA
B27: CACACA_negctrl_site566 (dsDNA)
DNA 1: TATTTTTATACAATTTAACACGGGTTATAAAATGTA
DNA 2: TACATTTTATAACCCGTGTTAAATTGTATAAAAATA
B28: CACACA_negctrl_site1635 (dsDNA)
DNA 1: TTTTGATATAAATATTAGATTAATAAATAAAAAAAT
DNA 2: ATTTTTTTATTTATTAATCTAATATTTATATCAAAA
B29: CACACA_negctrl_site1828 (dsDNA)
DNA 1: ATCTCAAATATAATAAATTATTAGGTATATATATAT
DNA 2: ATATATATATACCTAATAATTTATTATATTTGAGAT
B30: CACACA_negctrl_site809 (dsDNA)
DNA 1: AAATAATATTTTTTTTTTTTTTTTTTTTTATGTTAT
DNA 2: ATAACATAAAAAAAAAAAAAAAAAAAAATATTATTT
B31: CACACA_negctrl_site347 (dsDNA)
DNA 1: TTATATATATTTAAAAAAATAACATAAATAAATAAA
DNA 2: TTTATTTATTTATGTTATTTTTTTAAATATATATAA
B32: CACACA_negctrl_site368 (dsDNA)
DNA 1: TTTTTCATTTCTGCATTTATTTATAAATAAATATTT
DNA 2: AAATATTTATTTATAAATAAATGCAGAAATGAAAAA
B33: CACACA_negctrl_site580 (dsDNA)
DNA 1: TATTAAAAAAAAAAATAAAAAAATAAAATAAAATAA
DNA 2: TTATTTTATTTTATTTTTTTATTTTTTTTTTTAATA
B34: CACACA_negctrl_site1411 (dsDNA)
DNA 1: AATTAAAGGAATTACAACTTTGCAAGCGCAACATAA
DNA 2: TTATGTTGCGCTTGCAAAGTTGTAATTCCTTTAATT
B35: CACACA_negctrl_site629 (dsDNA)
DNA 1: TGCTTATATCTTATAATATTTATACATCATAATAAG
DNA 2: CTTATTATGATGTATAAATATTATAAGATATAAGCA
B36: CACACA_negctrl_site929 (dsDNA)
DNA 1: ACAGATATACATAAAAAAAAAATAATTTTACATATA
DNA 2: TATATGTAAAATTATTTTTTTTTTATGTATATCTGT
B37: CACACA_negctrl_site1260 (dsDNA)
DNA 1: TAAATCATTTCATGGCATTTACACAAAATTTTTTAA
DNA 2: TTAAAAAATTTTGTGTAAATGCCATGAAATGATTTA
B38: CACACA_negctrl_site217 (dsDNA)
DNA 1: TAATTTCATCATATTTGTTCCTTCTCAAAATTTTTT
DNA 2: AAAAAATTTTGAGAAGGAACAAATATGATGAAATTA
B39: CACACA_negctrl_site1028 (dsDNA)
DNA 1: ATTTTTTTATGTACACAAAAAAAAAAAAAAATTTAA
DNA 2: TTAAATTTTTTTTTTTTTTTGTGTACATAAAAAAAT
B40: CACACA_negctrl_site1022 (dsDNA)
DNA 1: ATAAATTGTTCTTTTTGTGTAAACAGAATATTAAAA
DNA 2: TTTTAATATTCTGTTTACACAAAAAGAACAATTTAT
B41: CACACA_negctrl_site398 (dsDNA)
DNA 1: TATTTATTTATTTATTTATTTATTTATTTATATTTA
DNA 2: TAAATATAAATAAATAAATAAATAAATAAATAAATA
B42: CACACA_negctrl_site1762 (dsDNA)
DNA 1: TTTTTTTCTTCTTTTCTCTTAAAAATATTGAATATT
DNA 2: AATATTCAATATTTTTAAGAGAAAAGAAGAAAAAAA
B43: CACACA_negctrl_site474 (dsDNA)
DNA 1: TAAAAAAAGGAAAACATACAATTCTATTTTTCAATA
DNA 2: TATTGAAAAATAGAATTGTATGTTTTCCTTTTTTTA
B44: CACACA_negctrl_site1286 (dsDNA)
DNA 1: TTGTATTCCTTTTACAACTACCATGAAGAGAATTTT
DNA 2: AAAATTCTCTTCATGGTAGTTGTAAAAGGAATACAA

Target: T1, AP2-HC D1
Assay: gcPBM; about 25 ug protein; PBS, 1% milk, 0.2 mg/ml BSA, salmon testes DNA, 0.03% Triton X-100
Conditions: tags: N-terminal GST (pGEX-4T-1), kept; label: surface-attached array probe

Binder | binding signal
B1 | 9.38 ln median PBM intensity, better of two orientations
B2 | 9.38 ln median PBM intensity, better of two orientations
B3 | 9.38 ln median PBM intensity, better of two orientations
B4 | 9.39 ln median PBM intensity, better of two orientations
B5 | 9.39 ln median PBM intensity, better of two orientations
B6 | 9.39 ln median PBM intensity, better of two orientations
B7 | 9.39 ln median PBM intensity, better of two orientations
B8 | 9.4 ln median PBM intensity, better of two orientations
B9 | 9.4 ln median PBM intensity, better of two orientations
B10 | 9.41 ln median PBM intensity, better of two orientations
B11 | 9.41 ln median PBM intensity, better of two orientations
B12 | 9.42 ln median PBM intensity, better of two orientations
B13 | 9.42 ln median PBM intensity, better of two orientations
B14 | 9.42 ln median PBM intensity, better of two orientations
B15 | 9.43 ln median PBM intensity, better of two orientations
B16 | 9.43 ln median PBM intensity, better of two orientations
B17 | 9.43 ln median PBM intensity, better of two orientations
B18 | 9.44 ln median PBM intensity, better of two orientations
B19 | 9.44 ln median PBM intensity, better of two orientations
B20 | 9.44 ln median PBM intensity, better of two orientations
B21 | 9.44 ln median PBM intensity, better of two orientations
B22 | 9.44 ln median PBM intensity, better of two orientations

Binder | binding signal
B23 | 9.44 ln median PBM intensity, better of two orientations
B24 | 9.45 ln median PBM intensity, better of two orientations
B25 | 9.45 ln median PBM intensity, better of two orientations
B26 | 9.45 ln median PBM intensity, better of two orientations
B27 | 9.46 ln median PBM intensity, better of two orientations
B28 | 9.46 ln median PBM intensity, better of two orientations
B29 | 9.46 ln median PBM intensity, better of two orientations
B30 | 9.46 ln median PBM intensity, better of two orientations
B31 | 9.47 ln median PBM intensity, better of two orientations
B32 | 9.47 ln median PBM intensity, better of two orientations
B33 | 9.47 ln median PBM intensity, better of two orientations
B34 | 9.47 ln median PBM intensity, better of two orientations
B35 | 9.47 ln median PBM intensity, better of two orientations
B36 | 9.47 ln median PBM intensity, better of two orientations
B37 | 9.48 ln median PBM intensity, better of two orientations
B38 | 9.48 ln median PBM intensity, better of two orientations
B39 | 9.48 ln median PBM intensity, better of two orientations
B40 | 9.48 ln median PBM intensity, better of two orientations
B41 | 9.48 ln median PBM intensity, better of two orientations
B42 | 9.49 ln median PBM intensity, better of two orientations
B43 | 9.49 ln median PBM intensity, better of two orientations
B44 | 9.49 ln median PBM intensity, better of two orientations
